{"source": "paper doi:10.1101/2020.03.27.012328", "about": "(bioRxiv, 2020)", "biological_target": "CID1R^ML (maximum likelihood reconstructed ancestral CID from the time of the first whole genome duplication)", "assay": "ITC", "data": [{"binder": "TPPQALQQLLQTLKSPSSPQQQQQVLQILKSNPQLMAAFIKQRSQHQQ (domain or fragment)", "note": "[NCBDD/P of the ITC example in Figure S1e (label lost)]", "values": [{"measurement": "Kd", "value": "2900 ± 100", "unit": "nM"}]}]}
